T1: full-length hCDCP1 with N-terminal c-Myc tag (expression vector GS01), on Ba/F3-hCDCP1 cells or … (human, UniProt Q9H5V8 30-836)
T1 construct: also called human CDCP1; hCDCP1 forced expression cells
T1 sequence: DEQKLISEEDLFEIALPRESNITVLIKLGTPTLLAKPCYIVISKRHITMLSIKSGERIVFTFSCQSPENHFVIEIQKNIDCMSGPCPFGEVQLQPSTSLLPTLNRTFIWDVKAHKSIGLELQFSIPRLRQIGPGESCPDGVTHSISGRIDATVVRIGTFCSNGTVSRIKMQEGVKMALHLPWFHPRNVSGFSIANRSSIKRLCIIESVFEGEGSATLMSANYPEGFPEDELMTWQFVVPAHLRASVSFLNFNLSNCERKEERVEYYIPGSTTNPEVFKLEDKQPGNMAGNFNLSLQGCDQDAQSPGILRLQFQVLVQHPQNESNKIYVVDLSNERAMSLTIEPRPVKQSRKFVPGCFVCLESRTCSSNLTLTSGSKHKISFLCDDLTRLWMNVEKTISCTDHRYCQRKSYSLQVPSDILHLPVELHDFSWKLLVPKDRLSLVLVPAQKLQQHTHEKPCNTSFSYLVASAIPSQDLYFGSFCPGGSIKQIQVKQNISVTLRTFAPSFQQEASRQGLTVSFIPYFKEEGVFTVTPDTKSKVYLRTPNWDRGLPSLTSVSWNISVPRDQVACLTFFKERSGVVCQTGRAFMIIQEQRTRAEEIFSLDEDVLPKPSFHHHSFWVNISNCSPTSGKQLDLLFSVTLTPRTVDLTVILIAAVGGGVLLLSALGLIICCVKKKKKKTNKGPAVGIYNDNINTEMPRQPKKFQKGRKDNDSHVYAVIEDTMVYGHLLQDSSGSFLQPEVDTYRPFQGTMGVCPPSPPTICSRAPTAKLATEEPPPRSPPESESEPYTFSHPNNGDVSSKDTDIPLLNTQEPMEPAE

B1: mh12A041HCori/LCoriA (antibody, human IgG1, kappa, V domains shown)
VH: EVQLQESGPGILQPSQTLSLTCSFSGFSLSTSGMGVSWIRQPSGKGLEWLAHIYWDDDKRYNPSLKSRLTISKDTSSNQVFLKITSVDTADTATYYCARSGSYYGSSLDCWGQGTTLTVSS
VL: DVLMTQTPLSLPVSLGDQASISCRSSQSIVYSNGNTYLEWYLQKPGQSPKLLIYKVSNRFSGVPDRFSGSGSGTDFTLKISRVEAEDLGVYYCFQGSHVPWTFGGGTKLEIRR
notes: mouse-human chimeric antibody, human IgG1/kappa constant regions
B2: mh12A041HCv1/LCori (antibody, human IgG1, kappa, V domains shown)
VH: EVQLQESGPGILQPSQTLSLTCSFSGFSLSTSGMGVSWIRQPSGKGLEWLAHIYWDDDKRYNPSLKSRLTISKDTSSNQVFLKITSVDTADTATYYCARSGSYYGSSLDSWGQGTTLTVSS
VL: DVLMTQTPLSLPVSLGDQASISCRSSQSIVHSNGNTYLEWYLQKPGQSPKLLIYKVSNRFSGVPDRFSGSGSGTDFTLKISRVEAEDLGVYYCFQGSHVPWTFGGGTKLEIKR
notes: as for B1
B3: mh12A041HCori/LCv1 (antibody, human IgG1, kappa, V domains shown)
VH: EVQLQESGPGILQPSQTLSLTCSFSGFSLSTSGMGVSWIRQPSGKGLEWLAHIYWDDDKRYNPSLKSRLTISKDTSSNQVFLKITSVDTADTATYYCARSGSYYGSSLDCWGQGTTLTVSS
VL: DVLMTQTPLSLPVSLGDQASISCRSSQSIVHSSGNTYLEWYLQKPGQSPKLLIYKVSNRFSGVPDRFSGSGSGTDFTLKISRVEAEDLGVYYCFQGSHVPWTFGGGTKLEIRR
notes: as for B1
B4: mh12A041HCori/LCoriB (antibody, human IgG1, kappa, V domains shown)
VH: EVQLQESGPGILQPSQTLSLTCSFSGFSLSTSGMGVSWIRQPSGKGLEWLAHIYWDDDKRYNPSLKSRLTISKDTSSNQVFLKITSVDTADTATYYCARSGSYYGSSLDCWGQGTTLTVSS
VL: DVLMTQTPLSLPVSLGDQASISCRSSQNIVHSDGNTYLEWYLQKPGQSPKLLIYKVSNRFSGVPDRFSGSGSGTDFTLKISRVEAEDLGVYYCFQGSHVPWTFGGGTKLEIRR
notes: as for B1
B5: mh12A041HCoriA/LCoriA (antibody, human IgG1, kappa, V domains shown)
VH: EVQLQESGPGILQPSQTLSLTCSFSGFSLSTFGMGVSWIRQPSGKGLEWLAHIYWDDDKRYNPSLKSRLTISKDTSSNQVFLKITSVDTADTATYYCARSGSYYGSSLDCWGQGTTLTVSS
VL: DVLMTQTPLSLPVSLGDQASISCRSSQSIVYSNGNTYLEWYLQKPGQSPKLLIYKVSNRFSGVPDRFSGSGSGTDFTLKISRVEAEDLGVYYCFQGSHVPWTFGGGTKLEIRR
notes: as for B1
B6: mh12A041HCv1/LCv2 (antibody, human IgG1, kappa, V domains shown)
VH: EVQLQESGPGILQPSQTLSLTCSFSGFSLSTSGMGVSWIRQPSGKGLEWLAHIYWDDDKRYNPSLKSRLTISKDTSSNQVFLKITSVDTADTATYYCARSGSYYGSSLDSWGQGTTLTVSS
VL: DVLMTQTPLSLPVSLGDQASISCRSSQSIVHSNANTYLEWYLQKPGQSPKLLIYKVSNRFSGVPDRFSGSGSGTDFTLKISRVEAEDLGVYYCFQGSHVPWTFGGGTKLEIRR
notes: as for B1
B7: mh12A041HCori/LCv2 (antibody, human IgG1, kappa, V domains shown)
VH: EVQLQESGPGILQPSQTLSLTCSFSGFSLSTSGMGVSWIRQPSGKGLEWLAHIYWDDDKRYNPSLKSRLTISKDTSSNQVFLKITSVDTADTATYYCARSGSYYGSSLDCWGQGTTLTVSS
VL: DVLMTQTPLSLPVSLGDQASISCRSSQSIVHSNANTYLEWYLQKPGQSPKLLIYKVSNRFSGVPDRFSGSGSGTDFTLKISRVEAEDLGVYYCFQGSHVPWTFGGGTKLEIRR
notes: as for B1
B8: mh12A041HCv1/LCv1 (antibody, human IgG1, kappa, V domains shown)
VH: EVQLQESGPGILQPSQTLSLTCSFSGFSLSTSGMGVSWIRQPSGKGLEWLAHIYWDDDKRYNPSLKSRLTISKDTSSNQVFLKITSVDTADTATYYCARSGSYYGSSLDSWGQGTTLTVSS
VL: DVLMTQTPLSLPVSLGDQASISCRSSQSIVHSSGNTYLEWYLQKPGQSPKLLIYKVSNRFSGVPDRFSGSGSGTDFTLKISRVEAEDLGVYYCFQGSHVPWTFGGGTKLEIRR
notes: as for B1
B9: mh12A041HCoriA/LCoriB (antibody, human IgG1, kappa, V domains shown)
VH: EVQLQESGPGILQPSQTLSLTCSFSGFSLSTFGMGVSWIRQPSGKGLEWLAHIYWDDDKRYNPSLKSRLTISKDTSSNQVFLKITSVDTADTATYYCARSGSYYGSSLDCWGQGTTLTVSS
VL: DVLMTQTPLSLPVSLGDQASISCRSSQNIVHSDGNTYLEWYLQKPGQSPKLLIYKVSNRFSGVPDRFSGSGSGTDFTLKISRVEAEDLGVYYCFQGSHVPWTFGGGTKLEIRR
notes: as for B1
B10: mh12A041HCoriA/LCori (antibody, human IgG1, kappa, V domains shown)
VH: EVQLQESGPGILQPSQTLSLTCSFSGFSLSTFGMGVSWIRQPSGKGLEWLAHIYWDDDKRYNPSLKSRLTISKDTSSNQVFLKITSVDTADTATYYCARSGSYYGSSLDCWGQGTTLTVSS
VL: DVLMTQTPLSLPVSLGDQASISCRSSQSIVHSNGNTYLEWYLQKPGQSPKLLIYKVSNRFSGVPDRFSGSGSGTDFTLKISRVEAEDLGVYYCFQGSHVPWTFGGGTKLEIKR
notes: as for B1
B11: mh14A025HCv1/LCori (antibody, human IgG1, kappa, V domains shown)
VH: EVQLQESGAELVRPGALVKLSCKASGFNIKDYYMHWVKQRPEQGLEWIGWIDPESGNTIYDPKFQGKASITADTSSNTAYLQLSSLTSEDTAVYYCGGLLYAMDYWGQGTSVTVSS
VL: DIQMTQTTSSLSASLGDRVTISCRASQDISNYLNWYQQKPDGTVKLLIYFTSRLHSGVPSRFSGSGSGTDYSLTISNLEQEDIATYFCQQGNTLPRTFGGGTKLEIRR
notes: as for B1
B12: mh14A025HCv21/LCori (antibody, human IgG1, kappa, V domains shown)
VH: EVQLQESGAELVRPGALVKLSCKASGFNIKDYYMHWVKQRPEQGLEWIGWIDPETGNTIYDPKFQGKASITADTSSNTAYLQLSSLTSEDTAVYYCGGLLYAMDYWGQGTSVTVSS
VL: DIQMTQTTSSLSASLGDRVTISCRASQDISNYLNWYQQKPDGTVKLLIYFTSRLHSGVPSRFSGSGSGTDYSLTISNLEQEDIATYFCQQGNTLPRTFGGGTKLEIRR
notes: as for B1
B13: mh14A025HCv19/LCori (antibody, human IgG1, kappa, V domains shown)
VH: EVQLQESGAELVRPGALVKLSCKASGFNIKDYYMHWVKQRPEQGLEWIGWIDPERGNTIYDPKFQGKASITADTSSNTAYLQLSSLTSEDTAVYYCGGLLYAMDYWGQGTSVTVSS
VL: DIQMTQTTSSLSASLGDRVTISCRASQDISNYLNWYQQKPDGTVKLLIYFTSRLHSGVPSRFSGSGSGTDYSLTISNLEQEDIATYFCQQGNTLPRTFGGGTKLEIRR
notes: as for B1
B14: mh14A025HCv7/LCori (antibody, human IgG1, kappa, V domains shown)
VH: EVQLQESGAELVRPGALVKLSCKASGFNIKDYYMHWVKQRPEQGLEWIGWIDPENENTIYDPKFQGKASITADTSSNTAYLQLSSLTSEDTAVYYCGGLLYAMDYWGQGTSVTVSS
VL: DIQMTQTTSSLSASLGDRVTISCRASQDISNYLNWYQQKPDGTVKLLIYFTSRLHSGVPSRFSGSGSGTDYSLTISNLEQEDIATYFCQQGNTLPRTFGGGTKLEIRR
notes: as for B1
B15: mh14A025HCv17/LCori (antibody, human IgG1, kappa, V domains shown)
VH: EVQLQESGAELVRPGALVKLSCKASGFNIKDYYMHWVKQRPEQGLEWIGWIDPENMNTIYDPKFQGKASITADTSSNTAYLQLSSLTSEDTAVYYCGGLLYAMDYWGQGTSVTVSS
VL: DIQMTQTTSSLSASLGDRVTISCRASQDISNYLNWYQQKPDGTVKLLIYFTSRLHSGVPSRFSGSGSGTDYSLTISNLEQEDIATYFCQQGNTLPRTFGGGTKLEIRR
notes: as for B1
B16: mh14A025HCv2/LCori (antibody, human IgG1, kappa, V domains shown)
VH: EVQLQESGAELVRPGALVKLSCKASGFNIKDYYMHWVKQRPEQGLEWIGWIDPENANTIYDPKFQGKASITADTSSNTAYLQLSSLTSEDTAVYYCGGLLYAMDYWGQGTSVTVSS
VL: DIQMTQTTSSLSASLGDRVTISCRASQDISNYLNWYQQKPDGTVKLLIYFTSRLHSGVPSRFSGSGSGTDYSLTISNLEQEDIATYFCQQGNTLPRTFGGGTKLEIRR
notes: as for B1
B17: mh14A025HCv8/LCori (antibody, human IgG1, kappa, V domains shown)
VH: EVQLQESGAELVRPGALVKLSCKASGFNIKDYYMHWVKQRPEQGLEWIGWIDPEFGNTIYDPKFQGKASITADTSSNTAYLQLSSLTSEDTAVYYCGGLLYAMDYWGQGTSVTVSS
VL: DIQMTQTTSSLSASLGDRVTISCRASQDISNYLNWYQQKPDGTVKLLIYFTSRLHSGVPSRFSGSGSGTDYSLTISNLEQEDIATYFCQQGNTLPRTFGGGTKLEIRR
notes: as for B1
B18: mh14A025HCv15/LCori (antibody, human IgG1, kappa, V domains shown)
VH: EVQLQESGAELVRPGALVKLSCKASGFNIKDYYMHWVKQRPEQGLEWIGWIDPENLNTIYDPKFQGKASITADTSSNTAYLQLSSLTSEDTAVYYCGGLLYAMDYWGQGTSVTVSS
VL: DIQMTQTTSSLSASLGDRVTISCRASQDISNYLNWYQQKPDGTVKLLIYFTSRLHSGVPSRFSGSGSGTDYSLTISNLEQEDIATYFCQQGNTLPRTFGGGTKLEIRR
notes: as for B1
B19: mh14A025HCv5/LCori (antibody, human IgG1, kappa, V domains shown)
VH: EVQLQESGAELVRPGALVKLSCKASGFNIKDYYMHWVKQRPEQGLEWIGWIDPENDNTIYDPKFQGKASITADTSSNTAYLQLSSLTSEDTAVYYCGGLLYAMDYWGQGTSVTVSS
VL: DIQMTQTTSSLSASLGDRVTISCRASQDISNYLNWYQQKPDGTVKLLIYFTSRLHSGVPSRFSGSGSGTDYSLTISNLEQEDIATYFCQQGNTLPRTFGGGTKLEIRR
notes: as for B1

Target: T1, full-length hCDCP1 with N-terminal …
Assay: flow cytometry on Ba/F3-hCDCP1 cells

| Binder | binding result |
| --- | --- |
| B1 | binds |
| B2 | binds |
| B3 | binds |
| B4 | binds |
| B5 | binds |
| B6 | binds |
| B7 | binds |
| B8 | binds |
| B9 | binds |
| B10 | binds |
| B11 | binds |
| B12 | binds |
| B13 | binds |
| B14 | binds |
| B15 | binds |
| B16 | binds |
| B17 | binds |
| B18 | binds |
| B19 | binds |

— US20230050380A1 (CHIOME BIOSCIENCE, published 2023)
